Results taken from IntAct's records for PubMed 26822058.

B1: MARVEL domain-containing protein 2 (Homo sapiens), Q8N4S9 (parent)
chain: MSNDGRSRNRDRRYDEVPSDLPYQDTTIRTHPTLHDSERAVSADPLPPPPLPLQPPFGPDFYSSDTEEPAIAPDLKPVRRFVPDSWKNFFRGKKKDPEWDKPVSDIRYISDGVECSPPASPARPNHRSPLNSCKDPYGGSEGTFSSRKEADAVFPRDPYGSLDRHTQTVRTYSEKVEEYNLRYSYMKSWAGLLRILGVVELLLGAGVFACVTAYIHKDSEWYNLFGYSQPYGMGGVGGLGSMYGGYYYTGPKTPFVLVVAGLAWITTIIILVLGMSMYYRTILLDSNWWPLTEFGINVALFILYMAAAIVYVNDTNRGGLCYYPLFNTPVNAVFCRVEGGQIAAMIFLFVTMIVYLISALVCLKLWRHEAARRHREYMEQQEINEPSLSSKRKMCEMATSGDRQRDSEVNFKELRTAKMKPELLSGHIPPGHIPKPIVMPDYVAKYPVIQTDDERERYKAVFQDQFSEYKELSAEVQAVLRKFDELDAVMSRLPHHSESRQEHERISRIHEEFKKKKNDPTFLEKKERCDYLKNKLSHIKQRIQEYDKVMNWDVQGYS

Variants of: B1
Settings: with plmn_human PLG

effect of a mutation on the interaction	Variant
decreasing interaction strength	K217A
disrupting interaction strength	K217A;K252A
decreasing interaction strength	K252A
